Where no end group is shown, it is not given here. [ ]: non-standard residue; d: D form. FAM = fluorescein
Key:
MMP13 = target: T1, MMP13 (Homo sapiens, UniProt P45452); assay: In vitro recombinant protease assay (fluorescence dequenching of NP-bound substrate); assay type: biochemical; conditions: for cleavage of substrate by MMP13: unmodified substrate on particle
T1 construct: purchased Enzo Life Sciences
Protocol: (§1) C1-NP complexes sensitive to MMP cleavage were mixed with 1% (wt/vol) BSA (Sigma) and incubated with recombinant proteases (MMPs and ADAMs: Enzo Life Sciences; Clotting proteases: Haematologic Technologies) in a final volume of 100 μL in enzyme-specific buffers (MMP buffer: 50 mM Tris, 150 mM NaCl, 5 mM CaCl2, 1 μM ZnCl2, pH 7.5; Clotting proteases: PBS) in a 384-well plate for time-lapse fluorimetry to measure dequenching from homoquenched peptides at 37° C. (SpectroMax Gemini EM Microplate Reader). For the metalloproteinase, enzymes were diluted 1:10 in enzyme specific buffer, and for clotting proteases, enzymes were diluted 1:100. Cleavage heatmap was generated using GENE-E (Broad Institute). Michaelis-Menten constants were determined by assessing initial cleavage velocities at different substrate concentrations. The MMP inhibitor Marimatstat (Tocris) was added to the mixture at 100 μM final concentration. To identify the cleavage position by MMP9, C1-NPs were incubated with MMP9 overnight, and the N-terminal cleavage fragment was isolated and analyzed by MALDI. The sequence corresponding to the dominant peak was identified, and the final amino acid was in that sequence represents the P1 position (toward the N-terminal end from scissile bond). For protease resistance assays, various DMNPE: peptide ratios were reacted overnight and purified prior to being added to proteases.
(§2) Light activation of peptides for biochemical studies was performed using a CL-1000 UV Cross-linker (UVP, 8 mW/cm^2). Power density was measured by an OAI 306 UV power meter at 365 nm. Typical exposure time for these studies was 10-30 min. For activation in cell and animal studies, Lumen Dynamics UV system with 365 nm fiber light guide was used (OmniCure 1000, 200 mW/cm^2). For in vivo activation at the tumor site, mice were anesthetized, and the light was guided through an optical cable and placed approximately 3 cm from the flank tumor. Each flank tumor was exposed for 30 s.

MMP1 = target: T2, MMP1 (Homo sapiens, UniProt P03956); assay: as above; assay type: biochemical; conditions: unmodified substrate on particle
T2 construct: purchased Enzo Life Sciences
T2 sequence (P03956 100-469): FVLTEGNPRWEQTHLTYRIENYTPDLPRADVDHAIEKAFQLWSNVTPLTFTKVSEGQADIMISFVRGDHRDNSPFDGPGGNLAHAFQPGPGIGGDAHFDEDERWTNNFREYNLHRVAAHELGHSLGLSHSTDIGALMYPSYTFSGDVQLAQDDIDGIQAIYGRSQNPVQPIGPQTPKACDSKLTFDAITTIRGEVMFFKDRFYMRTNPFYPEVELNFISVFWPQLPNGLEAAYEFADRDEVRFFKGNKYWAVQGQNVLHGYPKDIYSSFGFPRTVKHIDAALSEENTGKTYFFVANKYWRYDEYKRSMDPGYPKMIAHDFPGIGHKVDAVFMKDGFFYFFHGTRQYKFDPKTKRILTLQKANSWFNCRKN
Protocol: as §1

MMP14 = target: T3, MMP14 (Homo sapiens, UniProt P50281); assay: as above; assay type: biochemical; conditions: unmodified substrate on particle
T3 construct: purchased Enzo Life Sciences
Protocol: as §1

MMP7 = target: T4, MMP7 (Homo sapiens, UniProt P09237); assay: as above; assay type: biochemical; conditions: unmodified substrate on particle
T4 construct: purchased Enzo Life Sciences
T4 sequence (P09237 95-267): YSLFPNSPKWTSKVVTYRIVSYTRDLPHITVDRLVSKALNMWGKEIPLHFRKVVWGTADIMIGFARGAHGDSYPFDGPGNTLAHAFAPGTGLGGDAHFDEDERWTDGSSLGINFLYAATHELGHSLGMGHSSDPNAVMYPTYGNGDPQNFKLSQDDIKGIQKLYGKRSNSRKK
Protocol: as §1

[1] = NP stability in physiological solution (lack of fluorescent dequenching); assay type: in vitro ADME; conditions: physiological solution (human control serum, FIG. 7C), 37° C., 24 h
Protocol: Next, whether STREAMs could provide both spatial and temporal control of MMP activity measurements was tested. First, whether the veiled NPs would block protease cleavage until activation by light was evaluated. Due to homoquenching of the fluorescent substrates once assembled on the NPs, protease activity can be monitored by measuring increases in sample fluorescence that occurs from peptide proteolysis (FIG. 7B). NPs were stable in physiological solution at 37° C. over 24 h, as confirmed by a lack of fluorescent dequenching (FIG. 7C).

LS174T cells [2] = assay: Secreted protease activity assay, conditioned media; assay type: cell-based, human; conditions: conditioned media from LS174T cells
Protocol: (§3) LS174T and CCD-18Co (ATCC CRL-1459) cells were cultured in Eagle's Minimal Essential Medium (ATCC) supplemented with 10% FBS (Gibco) and 1% penicillin-streptomycin (CellGro). Cells were passaged when confluence reached 80%. To isolate secreted proteases, after cells were plated, cells were washed and replaced in serum-free media. Conditioned media was collected 24 h later and exposed to C1-NPs to measure fluorescence dequenching.

CCD-18Co cell line = assay: as above; assay type: cell-based; conditions: conditioned media from CCD-18Co cells
Protocol: as §3

LS174T cells [3] = assay: 3D collagen cancer tissue model, peptide fluorescence in supernatant; assay type: cell-based, human
Protocol: Next, the activation of the nanosensors in a 3D ECM environment was probed. Forty LS174T cells were embedded in collagen I together with veiled or unmodified nanosensors (FIG. 4A). The constructs were monitored for protease activity by collecting the supernatant and measuring liberated peptide fragments under different conditions: L-amino acid peptide substrates were compared to D-amino acid counterparts to measure nonspecific background, and the role of DMPNE veiling was measured.
In order to correlate regions of light-activation with protease activity measurements, light-activated rhodamine dye was included to visualize regions exposed to light (FIG. 12A). To explore the ability to monitor protease activity with spatial and temporal control, only the left half of the gels was illuminated.
LS174T cells were encapsulated in 2.5 mg/mL collagen hydrogels (rat tail collagen type I, Corning). Imaging was done on Nikon Eclipse Ti Inverted Microscopes and Zeiss Stereoscope Discovery v20. When protease activity was measured, surrounding media was serum-free.

MMP9 = MMP9 (Homo sapiens, UniProt P14780); assay: In vitro recombinant protease assay (fluorescence dequenching of NP-bound substrate); assay type: biochemical; design: purchased Enzo Life Sciences
Chain of MMP9 (P14780 94-707, species assumed): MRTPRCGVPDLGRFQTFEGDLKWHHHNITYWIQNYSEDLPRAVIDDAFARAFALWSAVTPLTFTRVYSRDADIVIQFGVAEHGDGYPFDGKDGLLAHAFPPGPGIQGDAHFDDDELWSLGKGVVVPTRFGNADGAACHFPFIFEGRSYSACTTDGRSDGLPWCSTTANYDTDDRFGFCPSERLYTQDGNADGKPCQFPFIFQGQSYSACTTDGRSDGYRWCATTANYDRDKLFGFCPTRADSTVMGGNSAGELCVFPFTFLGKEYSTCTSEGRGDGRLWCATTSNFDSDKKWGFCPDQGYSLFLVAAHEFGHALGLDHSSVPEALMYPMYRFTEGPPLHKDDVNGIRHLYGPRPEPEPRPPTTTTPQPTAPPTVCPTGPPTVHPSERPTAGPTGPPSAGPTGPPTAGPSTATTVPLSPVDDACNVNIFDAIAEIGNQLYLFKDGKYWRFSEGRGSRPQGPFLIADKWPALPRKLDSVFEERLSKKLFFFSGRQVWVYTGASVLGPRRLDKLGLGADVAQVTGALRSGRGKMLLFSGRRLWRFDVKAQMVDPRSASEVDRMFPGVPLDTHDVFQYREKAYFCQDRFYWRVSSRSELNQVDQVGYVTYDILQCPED
Protocol: as §1, §2

C1-NPs: Iron oxide NPs functionalized with fluorescein-conjugated peptide substrate C1 at surface valency >20; in vitro protease sensor ({FAM}-[dS][dK]PLGLEEAGC(iron oxide nanoparticle); not fully specified; printed as FAM-sk-PLGLEEA-GC; also: C-terminal Cys coupled to iron oxide nanoparticle)
catalytic efficiency (MMP13; MMP13, Michaelis-Menten fit): > 10^4 M^−1 s^−1
cleavage of substrate by MMP13 (MMP13): most efficient
cleavage of substrate by MMP13 (MMP13; listed as C1-NP): significantly cleaved
cleavage of substrate by MMP1 (MMP1): significantly cleaved
cleavage of substrate by MMP14 (MMP14): able to cleave the substrate
cleavage of substrate by MMP7 (MMP7): significantly cleaved
stability (lack of fluorescent dequenching) [1]: stable
cleavage by cell-secreted proteases (LS174T cells [2]): peptide cleavage and a dose-dependent increase in fluorescence
cleavage by cell-secreted proteases (CCD-18Co cell line): significantly lower compared to LS174T cells
liberated peptide fluorescence in supernatant (LS174T cells [3]; first day, no light): significantly more fluorescent peptides than those with D-amino acid NPs
peptide fluorescence in supernatant after light exposure (LS174T cells [3]; left half of gels illuminated, 24 h, 30 s at 200 mW/cm^2): did not exhibit significant changes in peptide fluorescence
catalytic efficiency (MMP9; MMP9, Michaelis-Menten fit): > 10^3 M^−1 s^−1
cleavage of substrate by MMP9 (MMP9; unmodified substrate on particle): significantly cleaved
